Laboratory results as given in article PMC11423568, “Functional investigation of the two ClpPs and three ClpXs in Myxococcus xanthus DK1622” (mSphere, 2024).

T1: Myxococcus xanthus DK1622 trigger factor Tig (MXAN_2013), His- or MBP-tagged, for pulldown (Myxococcus xanthus DK1622, UniProt Q1DAT1 1-425)
T1 construct: ribosome-associated molecular chaperone trigger factor, Myxococcus xanthus DK1622, locus MXAN_2013; source: E. coli BL21, purified (Ni Sepharose for His tag, maltose elution for MBP)
T1 sequence (looked up): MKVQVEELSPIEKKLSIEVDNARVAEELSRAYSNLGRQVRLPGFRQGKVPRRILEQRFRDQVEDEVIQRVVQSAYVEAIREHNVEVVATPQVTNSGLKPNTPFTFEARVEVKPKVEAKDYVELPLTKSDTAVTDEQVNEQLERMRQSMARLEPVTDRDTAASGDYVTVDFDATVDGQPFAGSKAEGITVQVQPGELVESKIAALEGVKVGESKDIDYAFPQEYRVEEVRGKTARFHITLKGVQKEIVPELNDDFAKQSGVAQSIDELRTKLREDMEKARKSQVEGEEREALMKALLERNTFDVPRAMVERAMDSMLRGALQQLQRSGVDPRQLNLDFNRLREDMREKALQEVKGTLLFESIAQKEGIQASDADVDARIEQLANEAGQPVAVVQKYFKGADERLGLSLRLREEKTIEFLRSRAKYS


Assays:
[1] = target: the molecule itself; test: cross-linking; 20 µM ClpP1 or ClpP2 in 20 mM HEPES, 100 mM NaCl, 1 mM EDTA, pH 7.5, 25°C; glutaraldehyde (0.1% in methods, 1% in legend) 10 min, quenched with 200 mM Tris-HCl pH 7.5; SDS-PAGE
[2] = target: T1, Myxococcus xanthus DK1622 trigger …; test: pull-down; purified His-tagged and MBP-tagged proteins mixed, room temperature 30 min, passed through Ni-NTA resin (His-tagged protein held), washed with suspension buffer, eluted with 250 mM imidazole; MBP mixed with His-labeled protein as negative control; settings: both partners purified

binding result [2] | Binder | stoichiometry N [1]
– | Myxococcus xanthus DK1622 ClpP1 (MXAN_2014), no tag (enzyme, ClpP1, peptidase subunit of ClpXP, Myxococcus xanthus DK1622, locus MXAN_2014; also called nonlabeled ClpP1; nontagged ClpP1; source: E. coli BL21, purified; copies: 14) not shown | 14
binds | Myxococcus xanthus DK1622 ClpP1 (MXAN_2014), His- or MBP-tagged, for pulldown (enzyme, ClpP1, peptidase subunit of ClpXP, Myxococcus xanthus DK1622, locus MXAN_2014; source: E. coli BL21, purified (Ni Sepharose for His tag, maltose elution for MBP)) not shown | –
